Assay results taken from patent publication US12104181B2, “Compositions and methods for treating viral infections targeting TRIM7” (THE BOARD OF REGENTS OF THE UNIVERSITY OF TEXAS SYSTEM, priority 2021, dated 2024).

Test system: coxsackievirus B3 (CVB3-GFP)
Assay type: cell-based
Details: HeLa cells, replicate R1; for Percent Infected R1: GFP-positive cells within RFP-positive gate

Molecule	Percent Infected R1 [%]	Z score R1
PCGF6: human RING type E3 ligase expressed from lentiviral vector (protein, UniProt Q9BYE7 1-350, looked up) Polycomb group RING finger …: MEGVAVVTAGSVGAAKTEGAAALPPPPPVSPPALTPAPAAGEEGPAPLSETGAPGCSGSRPPELEPERSLGRFRGRFEDEDEELEEEEELEEEEEEEEEDMSHFSLRLEGGRQDSEDEEERLINLSELTPYILCSICKGYLIDATTITECLHTFCKSCIVRHFYYSNRCPKCNIVVHQTQPLYNIRLDRQLQDIVYKLVINLEEREKKQMHDFYKERGLEVPKPAVPQPVPSSKGRSKKVLESVFRIPPELDMSLLLEFIGANEGTGHFKPLEKKFVRVSGEATIGHVEKFLRRKMGLDPACQVDIICGDHLLEQYQTLREIRRAIGDAAMQDGLLVLHYGLVVSPLKIT	94.6	0.08
RNF4: human RING type E3 ligase expressed from lentiviral vector (protein, UniProt P78317 1-190, looked up, lentiviral expression, human RING type E3 ligase expressed from lentiviral vector) E3 ubiquitin-protein ligase …: MSTRKRRGGAINSRQAQKRTREATSTPEISLEAEPIELVETAGDEIVDLTCESLEPVVVDLTHNDSVVIVDERRRPRRNARRLPQDHADSCVVSSDDEELSRDRDVYVTTHTPRNARDEGATGLRPSGTVSCPICMDGYSEIVQNGRLIVSTECGHVFCSQCLRDSLKNANTCPTCRKKINHKRYHPIYI	93.3	0.06
ZNRF1: human RING type E3 ligase expressed from lentiviral vector (protein, UniProt Q8ND25 2-227, looked up, lentiviral expression, human RING type E3 ligase expressed from lentiviral vector) E3 ubiquitin-protein ligase …: GGKQSTAARSRGPFPGVSTDDSAVPPPGGAPHFGHYRTGGGAMGLRSRSVSSVAGMGMDPSTAGGVPFGLYTPASRGTGDSERAPGGGGSASDSTYAHGNGYQETGGGHHRDGMLYLGSRASLADALPLHIAPRWFSSHSGFKCPICSKSVASDEMEMHFIMCLSKPRLSYNDDVLTKDAGECVICLEELLQGDTIARLPCLCIYHKSCIDSWFEVNRSCPEHPAD	95.8	0.09
RNF130: human RING type E3 ligase expressed from lentiviral vector (protein, UniProt Q86XS8 28-419, looked up) E3 ubiquitin-protein ligase …: DNASQEYYTALINVTVQEPGRGAPLTFRIDRGRYGLDSPKAEVRGQVLAPLPLHGVADHLGCDPQTRFFVPPNIKQWIALLQRGNCTFKEKISRAAFHNAVAVVIYNNKSKEEPVTMTHPGTGDIIAVMITELRGKDILSYLEKNISVQMTIAVGTRMPPKNFSRGSLVFVSISFIVLMIISSAWLIFYFIQKIRYTNARDRNQRRLGDAAKKAISKLTTRTVKKGDKETDPDFDHCAVCIESYKQNDVVRILPCKHVFHKSCVDPWLSEHCTCPMCKLNILKALGIVPNLPCTDNVAFDMERLTRTQAVNRRSALGDLAGDNSLGLEPLRTSGISPLPQDGELTPRTGEINIAVTKEWFIIASFGLLSALTLCYMIIRATASLNANEVEWF	91.4	0.04
MARCH5: human RING type E3 ligase expressed from lentiviral vector (protein, UniProt Q9NX47 1-278, looked up) E3 ubiquitin-protein ligase …: MPDQALQQMLDRSCWVCFATDEDDRTAEWVRPCRCRGSTKWVHQACLQRWVDEKQRGNSTARVACPQCNAEYLIVFPKLGPVVYVLDLADRLISKACPFAAAGIMVGSIYWTAVTYGAVTVMQVVGHKEGLDVMERADPLFLLIGLPTIPVMLILGKMIRWEDYVLRLWRKYSNKLQILNSIFPGIGCPVPRIPAEANPLADHVSATRILCGALVFPTIATIVGKLMFSSVNSNLQRTILGGIAFVAIKGAFKVYFKQQQYLRQAHRKILNYPEQEEA	91.5	0.04
